In patent publication US20260152767A1 (TRUSTEES OF COLUMBIA UNIVERSITY IN THE CITY OF NEW YORK, published 2026):

B1: Allomuricauda taeanensis (Ata) sigma factor E RpoE with N-terminal 3xFLAG tag (other)
chain: MLYSDFELLKIGDTSALDHIHAKYFRSILWIGRQWLNDDFLIESLVQDTFLKLWVNRDKLESPEHIFYFLRFVMKRECISYYRKPKYKFHKKVNSLEDYDNYQDYMVGYDPVNDSENLDEQESTQKSFDHIKSILPLLNADKRHLIELCLKYGFQYKAISKVMGKGIHETSREIKEAIEDIKTIVHKGNELGSNDTMTNEIKFSGELSEEQAKVLKMRCDLKYSFSEIAKELELSEKEVHQEFMKAYKLMKANHQLQLQSA
notes: Expressed in E. coli together with dCas12f, HTH and gRNA; also called FLAG-RpoE; Ata RpoE; not shown: N-terminal 3xFLAG tag
B2: Allomuricauda taeanensis (Ata) rpoE-associated nuclease-dead Cas12f (other)
chain: MGKSTLKHTRKIQILIDLPTKDEKKEVMDMMYQWRDRCFRAANIIVTHLYVQEMIKDFFYLSEGIKYKLADEKKDEKGILQRSRMNTTYRVVSDRFKGEMPTNILSTLNHGLISSFNKNRVQYWKGERSLPNFKKDMAFPFGLQGISRLVYDEEKKAFCFRLYRVPFKTYLGKDFTDKRMLLERLVKGDVKLCASNIQLNGGKIFWLAVFEIEKEKHSLKPEVIAEASLSLEYPIVVKTGKNRLTIGTKEEFLYRRLAIQAARRRTQVGATYSRSGKGKKRKLKAVDKYHKTESNYVAHRIHVYSRKLIDFCIKHQAGTLILMNQEDKVGIAKEEEFVLRNWSYYELMTKIKYKAEKAGIELIIG
notes: Untagged dCas12f, co-expressed in E. coli with its gRNA from the Ata plasmid in which the FLAG tag sits on RpoE or on HTH; also called Ata dCas12f; AtadCas12f

What was measured:
[1] = target: B2; assay: ChIP-seq (anti-FLAG) of N-terminally 3xFLAG-tagged Ata RpoE in E. coli co-expressing Ata dCas12f and gRNAs retargeted to four genomic sites
Protocol: After conjugating, the antibody-magnetic beads were added to the sonication supernatant and incubated at 4° C. for 12-16 h. Then, the magnetic beads were washed and immunoprecipitated protein bound to crosslinked DNA was eluted. Reverse-crosslinking was performed at 65° C. overnight. Samples were treated with RNase A (Thermo Fisher Scientific) and proteinase K (Thermo Fisher Scientific) and purified using QIAquick spin columns (QIAGEN). ChIP-sequencing libraries were generated using the NEBNext Ultra II DNA Library Prep Kit for Illumina (NEB). Size selection (˜450 bp fragment size) was performed using AMPure XP Beads (Beckman Coulter) and samples were sequenced using the Illumina NextSeq 500 platform in paired-end mode with 75 cycles per end. Sequencing reads were mapped to the E. coli K-12 genome (GenBank NC_000913.3) using bowtie2 and normalized using deepTools bamCoverage and visualized in IGV using counts per million (CPM). […]
Re-programmability of gRNAs for RNA-guided DNA-targeting of dCas12f and RpoE To test whether the gRNA and TAM were correctly determined by RIP-seq and ChIP-seq, new guide sequences were cloned for one representative system (here, Ata), targeting 4 different DNA sites tiled across the E. coli K-12 genome. […]

[2] = target: B1; assay: summary of the ChIP-seq and ChIP-qPCR data on the Ata system in E. coli

B1
binding result [1]: binds

B2
binding result [2]: binds
